Where two headings read alike, the source gives them in different places.
Columns and labels:
[1] = biological target: T1, TNFR1 on the surface of cells (HT1080, HeLa, Kym-1) (human, UniProt P19438 30-455); assay: cell-based or functional assay
T1 sequence (looked up): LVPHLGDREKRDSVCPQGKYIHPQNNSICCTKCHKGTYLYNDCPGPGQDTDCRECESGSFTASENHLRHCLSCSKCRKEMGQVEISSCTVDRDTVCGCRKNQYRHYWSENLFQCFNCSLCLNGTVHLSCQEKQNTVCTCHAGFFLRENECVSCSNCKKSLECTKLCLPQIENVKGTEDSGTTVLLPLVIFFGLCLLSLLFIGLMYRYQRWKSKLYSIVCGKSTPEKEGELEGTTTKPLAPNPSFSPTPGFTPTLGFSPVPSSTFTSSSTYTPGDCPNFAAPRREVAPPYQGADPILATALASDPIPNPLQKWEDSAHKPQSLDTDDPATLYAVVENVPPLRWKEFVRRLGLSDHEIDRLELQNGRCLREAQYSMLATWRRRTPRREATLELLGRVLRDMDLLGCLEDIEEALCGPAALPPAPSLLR

[2] = biological target: T1, TNFR1 on the surface of cells (HT1080, …); assay: cell-based or functional assay; remark: listed apart in the source
[3] = biological target: T2, human TNFR1-Fc fusion protein (human, UniProt P19438 30-211); assay: ELISA, human TNFR1-Fc
T2 construct: Provided by Baliopharm AG; Coated at 1 ug/ml in the ELISA; also called huTNFR1-Fc; immobilized human TNFR1; not shown: Fc part not described
T2 sequence (looked up): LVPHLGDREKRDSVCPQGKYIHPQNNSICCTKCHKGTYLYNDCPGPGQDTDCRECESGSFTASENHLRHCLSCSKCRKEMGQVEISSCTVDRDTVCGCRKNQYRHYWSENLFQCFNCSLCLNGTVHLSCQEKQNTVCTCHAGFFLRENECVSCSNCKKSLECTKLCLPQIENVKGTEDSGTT
Procedure: (§1) Microtiter plates were coated with 100 μl of TNFFR1-Fc fusion protein (1 μg/ml in PBS) and incubated at 4° C. overnight. The residual binding sites were blocked with 2% MPBS (skim milk in PBS, 200 μl per well) at room temperature for 2 hours and subsequently washed twice with PBS. 100 μl of the samples diluted in 2% MPBS were incubated at room temperature for 1 hour prior to the last incubation step with 100 μl of the HRP conjugated detection antibodies in 2% MPBS. Bound protein was detected with 100 μl TMB substrate solution, the HRP-reaction was stopped by the addition of 50 μl 1 M H2SO4 and the absorption at the wavelength of 450 nm was measured using the Infinite microtiter plate reader (TECAN, Maennedorf, Switzerland). Between each incubation step and in advance of the detection, the plates were washed three times with PBST and twice with PBS.

[4] = biological target: T2, human TNFR1-Fc fusion protein; assay: ELISA, immobilized human TNFR1-Fc
Procedure: Microtiter plates were coated with 100 μl of TNFFR1-Fc fusion protein (1 μg/ml in PBS) and incubated at 4° C. overnight.

[5] = biological target: T2, human TNFR1-Fc fusion protein; assay: ELISA, immobilized human TNFR1-Fc; remark: listed apart in the source
[6] = biological target: T1, TNFR1 on the surface of cells (HT1080, …); assay: cell-based or functional assay; remark: listed apart in the source
[7] = biological target: T1, TNFR1 on the surface of cells (HT1080, …); assay: cell-based or functional assay; remark: listed apart in the source
[8] = biological target: MCSP (melanoma-associated chondroitin sulfate proteoglycan) on WM35 cells (human, UniProt Q6UVK1 30-2322); assay: cell-based or functional assay
[9] = biological target: T2, human TNFR1-Fc fusion protein; assay: ELISA, immobilized human TNFR1-Fc; remark: listed apart in the source
Procedure: as §1

[10] = biological target: T3, Her3-Fc fusion protein (human, UniProt P21860 20-643); assay: ELISA, immobilized Her3-Fc fusion protein
T3 construct: also called immobilized Her3-Fc fusion protein; not shown: Fc part not described

Chain of MCSP (melanoma-associated chondroitin sulfate proteoglycan) on WM35 cells (Q6UVK1 30-2322): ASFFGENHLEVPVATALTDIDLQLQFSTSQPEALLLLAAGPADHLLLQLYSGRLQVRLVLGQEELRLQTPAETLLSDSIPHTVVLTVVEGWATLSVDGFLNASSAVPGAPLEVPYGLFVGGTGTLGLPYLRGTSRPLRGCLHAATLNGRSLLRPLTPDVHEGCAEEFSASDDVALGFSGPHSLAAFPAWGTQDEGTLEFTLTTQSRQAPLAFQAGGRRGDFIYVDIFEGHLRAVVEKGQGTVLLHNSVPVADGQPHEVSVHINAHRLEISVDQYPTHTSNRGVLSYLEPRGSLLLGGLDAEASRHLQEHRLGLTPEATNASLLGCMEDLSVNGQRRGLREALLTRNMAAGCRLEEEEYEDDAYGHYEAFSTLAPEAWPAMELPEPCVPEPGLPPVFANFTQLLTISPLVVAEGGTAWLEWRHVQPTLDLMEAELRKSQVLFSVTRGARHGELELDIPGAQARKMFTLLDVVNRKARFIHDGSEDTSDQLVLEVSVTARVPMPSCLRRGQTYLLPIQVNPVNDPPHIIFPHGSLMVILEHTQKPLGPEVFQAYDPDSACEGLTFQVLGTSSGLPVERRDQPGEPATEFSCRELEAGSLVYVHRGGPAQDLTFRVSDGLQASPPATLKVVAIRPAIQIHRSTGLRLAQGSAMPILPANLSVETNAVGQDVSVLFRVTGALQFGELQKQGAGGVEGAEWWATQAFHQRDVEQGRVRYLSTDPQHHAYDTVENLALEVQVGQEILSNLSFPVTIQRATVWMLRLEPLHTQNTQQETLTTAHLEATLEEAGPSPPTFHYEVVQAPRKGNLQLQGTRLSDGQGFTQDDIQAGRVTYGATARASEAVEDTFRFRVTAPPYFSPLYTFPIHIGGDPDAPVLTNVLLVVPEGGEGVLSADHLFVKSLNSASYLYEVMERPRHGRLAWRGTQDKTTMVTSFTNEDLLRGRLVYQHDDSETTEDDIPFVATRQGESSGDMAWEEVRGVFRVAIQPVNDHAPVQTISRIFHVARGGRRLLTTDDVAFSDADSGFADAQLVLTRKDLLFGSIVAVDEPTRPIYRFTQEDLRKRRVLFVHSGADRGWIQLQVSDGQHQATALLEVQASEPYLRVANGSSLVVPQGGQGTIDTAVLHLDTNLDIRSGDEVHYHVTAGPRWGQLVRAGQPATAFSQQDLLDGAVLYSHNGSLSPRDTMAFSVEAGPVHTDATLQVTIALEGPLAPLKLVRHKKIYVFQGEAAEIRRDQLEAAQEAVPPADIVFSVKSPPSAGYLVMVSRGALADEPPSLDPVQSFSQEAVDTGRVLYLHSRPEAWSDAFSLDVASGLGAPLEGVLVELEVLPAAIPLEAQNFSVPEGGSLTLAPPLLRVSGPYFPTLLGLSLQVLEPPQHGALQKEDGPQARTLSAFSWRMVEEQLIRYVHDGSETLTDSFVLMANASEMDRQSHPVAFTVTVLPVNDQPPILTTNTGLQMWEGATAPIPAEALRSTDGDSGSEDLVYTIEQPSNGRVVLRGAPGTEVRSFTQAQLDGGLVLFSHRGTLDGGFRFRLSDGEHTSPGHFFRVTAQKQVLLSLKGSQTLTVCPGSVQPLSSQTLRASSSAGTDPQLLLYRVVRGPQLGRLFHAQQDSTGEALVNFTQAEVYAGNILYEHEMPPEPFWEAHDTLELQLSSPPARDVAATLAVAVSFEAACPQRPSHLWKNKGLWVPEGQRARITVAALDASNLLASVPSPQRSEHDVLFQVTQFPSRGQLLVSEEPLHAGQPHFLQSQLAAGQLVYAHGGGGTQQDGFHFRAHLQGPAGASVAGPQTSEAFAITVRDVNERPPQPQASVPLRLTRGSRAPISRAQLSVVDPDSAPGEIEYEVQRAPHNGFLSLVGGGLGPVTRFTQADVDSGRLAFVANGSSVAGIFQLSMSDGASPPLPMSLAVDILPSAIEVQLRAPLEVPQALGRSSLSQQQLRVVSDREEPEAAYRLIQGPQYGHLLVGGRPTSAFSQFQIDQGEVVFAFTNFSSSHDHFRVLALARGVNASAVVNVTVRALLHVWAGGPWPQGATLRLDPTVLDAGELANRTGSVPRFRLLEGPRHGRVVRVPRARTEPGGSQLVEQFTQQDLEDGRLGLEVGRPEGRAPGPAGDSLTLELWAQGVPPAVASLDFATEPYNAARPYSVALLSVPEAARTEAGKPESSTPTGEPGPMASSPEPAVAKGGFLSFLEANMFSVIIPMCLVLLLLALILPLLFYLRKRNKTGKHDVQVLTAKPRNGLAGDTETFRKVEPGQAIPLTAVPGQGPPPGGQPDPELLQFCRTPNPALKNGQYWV

B1: Fab13.7 (Fab, V domains shown)
VH: HVQLVQSGAEVKKPGSSVKVSCKASGYTFTDFYINWVRQAPGQGLEWIGEIVPSQGEAKYNDKFKARVTITADKSTSTAYMELSSLRSEDTAVYYCARWDFLDYWGQGTTVTVSS
VL: DVQMTQSPSSLSASVGDRVTITCRSSQSLLHSNGNTYLHWYQQKPGKAPKLLIYTVSNRFSGVPSRFSGSGSGTDFTLTISSLQPEDFATYYCSQSTHVPYTFGGGTKVEIK
notes: Monovalent anti-human TNFR1 control Fab; Its variable domains are those used in Fv13.7-Fc1k and Fv13.7x-Fc1k
- IC50, Cell death induction [nM] (Kym-1 cells, 0.01 nM TNF) [1]: 9.5 nM
- IC50, IL-6 [nM] (HeLa cells, 0.1 nM TNF) [1]: 37.1 nM
- IC50, IL-8 [nM] (HT1080 cells, 0.1 nM TNF) [1]: 12.7 nM
- IC50, IL-6 release (HeLa cells) [2]: 31.7 nM
- EC50 [3]: 0.17 nM
- EC50 [4]: 0.61 nM
- EC50 [5]: 0.9 nM
- IL-8 Inhibition IC50 [6]: 26.3 nM
- IL-8 Inhibition IC50 [7]: 13 nM

B2: MCSPN-CD3N-hFc1k (bispecific antibody)
chain 1: QVQLVQSGAEVKKPGASVKVSCKASGYTFTRSWMNWVRQAPGQGLEWMGRIYPGDGDTNYNGKFKGRVTMTRDTSTSTVYMELSSLRSEDTAVYYCARGNTVVVPYTMDYWGQGTTVTVSSGGGGSGGGGSGGGGSDIQMTQSPSSLSASVGDRVTITCRASESVDSYGNSFMHWYQQKPGKAPKLLIYLASNLESGVPSRFSGSGSGTDFTLTISSLQPEDFATYYCQQNNEDPLTFGGGTKVEIKRAAADKTHTCPPCPAPPVAGPSVFLFPPKPKDTLMISRTPEVTCVVVDVSHEDPEVKFNWYVDGVEVHNAKTKPREEQYNSTYRVVSVLTVLHQDWLNGKEYKCKVSNKGLPSSIEKTISKAKGQPREPSVFPLAPSSKSTSGGTAALGCLVKDYFPSDIAVEWESGALTSGVHTFPAVLQSSGLYSLSSVVTVPSSSLGTQTYSCSVMHEALHNHYTQKSVEPKSC
chain 2: DIQMTQSPSSLSASVGDRVTITCRASQDIRNYLNWYQQKPGKAPKLLIYYTSRLHSGVPSRFSGSGSGTDFTFTISSLQPEDIATYYCQQGNTLPWTFGQGTKLEIKRGGGGSGGGGSGGGGSQVQLVQSGAEVKKPGSSVKVSCKASGGTFSGYTMNWVRQAPGQGLEWMGLINPYKGVSTYNGKFKDRVTITADKSTSTAYMELSSLRSEDTAVYYCARSGYYGDSDWYFDVWGQGTLVTVSSSGGGSGGGGSDKTHTCPPCPAPPVAGPSVFLFPPKPKDTLMISRTPEVTCVVVDVSHEDPEVKFNWYVDGVEVHNAKTKPREEQYNSTYRVVSVLTVLHQDWLNGKEYKCKVSNKGLPSSIEKTISKAKGQPREPSVFIFPPSDEQLKSGTASVVCLVNNFYPRDIAVEWEVDNALQSGNSQESVTEQDSKDSTYSLSSTLTLSKADYEKHKVYSCSVMHEALHNHYTQKSFNRGECGGGGSGGGGSGGGGSGTGGSGG
- Cytotxicity IC50 [8]: 0.2 nM

B3: Fv13.7-Fc1k (Fc fusion)
chain 1: HVQLVQSGAEVKKPGSSVKVSCKASGYTFTDFYINWVRQAPGQGLEWIGEIVPSQGEAKYNDKFKARVTITADKSTSTAYMELSSLRSEDTAVYYCARWDFLDYWGQGTTVTVSSGTGGGSGPSVFLFPPKPKDTLMISRTPEVTCVVVDVSHEDPEVKFNWYVDGVEVHNAKTKPREEQYNSTYRVVSVLTVLHQDWLNGKEYKCKVSNKGLPSSIEKTISKAKGQPREPSVFPLAPSSKSTSGGTAALGCLVKDYFPSDIAVEWESGALTSGVHTFPAVLQSSGLYSLSSVVTVPSSSLGTQTYSCSVMHEALHNHYTQKSVEPKSC
chain 2: DVQMTQSPSSLSASVGDRVTITCRSSQSLLHSNGNTYLHWYQQKPGKAPKLLIYTVSNRFSGVPSRFSGSGSGTDFTLTISSLQPEDFATYYCSQSTHVPYTFGGGTKVEIKGTGGGSGPSVFLFPPKPKDTLMISRTPEVTCVVVDVSHEDPEVKFNWYVDGVEVHNAKTKPREEQYNSTYRVVSVLTVLHQDWLNGKEYKCKVSNKGLPSSIEKTISKAKGQPREPSVFIFPPSDEQLKSGTASVVCLVNNFYPRDIAVEWEVDNALQSGNSQESVTEQDSKDSTYSLSSTLTLSKADYEKHKVYSCSVMHEALHNHYTQKSFNRGEC
- fold reduced binding affinity compared with Fab13.7 [9]: 1.9 fold
- factor of increased inhibitory potential (IL-8 inhibition) compared to ATROSAB [2]: 2.5 fold
- fold reduced bioactivity (IL-8 inhibition) compared to Fab13.7 [2]: 1.5 fold
- EC50 [4]: 1.18 nM
- IL-8 Inhibition IC50 [6]: 39.7 nM

B4: Her3N-CD3N-hFc1k (bispecific antibody)
chain 1: QVQLQQSGPGLVKPSQTLSLTCAISGDSVSSNRAAWNWIRQSPSRGLEWLGRTYYRSKWYNDYAQSLKSRITINPDTPKNQFSLQLNSVTPEDTAVYYCARDGQLGLDALDIWGQGTMVTVSSGGGGSGGGGSGGGGSQAGLTQPPAVSVAPGQTASITCGRDNIGSRSVHWYQQKPGQAPVLVVYDDSDRPAGIPERFSGSNYENTATLTISRVEAGDEADYYCQVWGITSDHVVFGGGTKLTVLAAADKTHTCPPCPAPPVAGPSVFLFPPKPKDTLMISRTPEVTCVVVDVSHEDPEVKFNWYVDGVEVHNAKTKPREEQYNSTYRVVSVLTVLHQDWLNGKEYKCKVSNKGLPSSIEKTISKAKGQPREPSVFPLAPSSKSTSGGTAALGCLVKDYFPSDIAVEWESGALTSGVHTFPAVLQSSGLYSLSSVVTVPSSSLGTQTYSCSVMHEALHNHYTQKSVEPKSC
chain 2: B2 chain 2
notes: also called scFv3-43-CD3-Hinge-Fc1k
- EC50 [10]: 1 nM

B5: Her3N-CD3C-hFc1k (bispecific antibody)
chain 1: B4 chain 1
chain 2: DKTHTCPPCPAPPVAGPSVFLFPPKPKDTLMISRTPEVTCVVVDVSHEDPEVKFNWYVDGVEVHNAKTKPREEQYNSTYRVVSVLTVLHQDWLNGKEYKCKVSNKGLPSSIEKTISKAKGQPREPSVFIFPPSDEQLKSGTASVVCLVNNFYPRDIAVEWEVDNALQSGNSQESVTEQDSKDSTYSLSSTLTLSKADYEKHKVYSCSVMHEALHNHYTQKSFNRGECGGGGSGGGGSGGGGSGTDIQMTQSPSSLSASVGDRVTITCRASQDIRNYLNWYQQKPGKAPKLLIYYTSRLHSGVPSRFSGSGSGTDFTFTISSLQPEDIATYYCQQGNTLPWTFGQGTKLEIKRGGGGSGGGGSGGGGSQVQLVQSGAEVKKPGSSVKVSCKASGGTFSGYTMNWVRQAPGQGLEWMGLINPYKGVSTYNGKFKDRVTITADKSTSTAYMELSSLRSEDTAVYYCARSGYYGDSDWYFDVWGQGTLVTVSS
- EC50 [10]: 0.1 nM

Source: patent publication US20200172619A1 (UNIVERSIT T STUTTGART, published 2020)
